For 1 substance, Monocyte activation (THP1-Xblue, OD655) and moDC activation (IL-12p70, pg/mL) results are on record in patent US20210277137A1.

In this test the target is human CD40 on cells (human) (UniProt P25942). Kind of test: cell-based or functional assay.
Chain of human CD40 on cells (human) (P25942 21-277 limits assumed): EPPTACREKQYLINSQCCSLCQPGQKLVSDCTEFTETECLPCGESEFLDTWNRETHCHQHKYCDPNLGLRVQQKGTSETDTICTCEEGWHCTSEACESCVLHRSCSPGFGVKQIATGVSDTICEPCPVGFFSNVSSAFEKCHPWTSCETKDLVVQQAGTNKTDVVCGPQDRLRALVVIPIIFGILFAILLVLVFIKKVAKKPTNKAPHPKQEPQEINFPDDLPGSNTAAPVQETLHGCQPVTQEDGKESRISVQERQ

Regarding literature CD40 antibody G28-5, the Monocyte activation (THP1-Xblue, OD655) is 0.12 OD655 and the moDC activation (IL-12p70, pg/mL) came to 139 pg/mL.
